Where “and” joins values, the source holds several entries; their conditions need not be identical. Equal entries are not always repeated. Where no end group is shown, it is not given here. The star is where a group is joined. Biotin = O=C1N[C@H]2[C@H](CS[C@H]2CCCCC(=O)*)N1
Tests used:
C2-type 1-Fc = molecular target: T1, C2-type 1-Fc (human); experiment: Western blot on Fc fusion proteins of the domains
T1 construct: Expressed in Expi-293F cells, purified on Protein A, tested by Western blot; also called Ig-like C2-type 1 (Domain 2) of human CD276-ECD linked to human Fc; second functional domain of human CD276-ECD

[1] = molecular target: T2, human CD276 on the surface of tumor cells (human, UniProt Q5ZPR3 29-534); experiment: flow cytometry on human renal cancer cells A498
T2 construct: whole, on cells; Endogenous expression on human tumor cell lines; also called CD276 on A498 cells
T2 sequence (looked up): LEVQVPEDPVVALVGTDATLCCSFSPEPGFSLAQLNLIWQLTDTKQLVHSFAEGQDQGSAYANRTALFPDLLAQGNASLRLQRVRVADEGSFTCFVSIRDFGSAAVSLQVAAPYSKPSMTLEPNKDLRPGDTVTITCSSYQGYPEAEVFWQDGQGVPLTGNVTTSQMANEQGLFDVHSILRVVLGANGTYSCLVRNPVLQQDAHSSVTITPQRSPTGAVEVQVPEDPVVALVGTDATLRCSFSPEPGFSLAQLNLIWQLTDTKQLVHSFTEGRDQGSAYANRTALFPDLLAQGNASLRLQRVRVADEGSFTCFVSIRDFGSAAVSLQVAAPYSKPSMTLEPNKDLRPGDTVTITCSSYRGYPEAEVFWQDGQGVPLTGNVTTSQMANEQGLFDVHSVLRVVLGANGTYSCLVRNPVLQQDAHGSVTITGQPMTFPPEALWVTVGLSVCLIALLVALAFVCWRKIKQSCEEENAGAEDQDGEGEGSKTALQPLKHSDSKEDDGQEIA
Experimental: In this experiment, human renal cancer cells A498 were used as the target cells. […] The cells were washed twice with PBS to remove those secondary antibody unbinding to the cells and then resuspended in 100 μL PBS.

[2] = molecular target: T3, recombinant human CD276-ECD protein (human, UniProt Q5ZPR3 29-255); experiment: indirect ELISA, plate coated with human CD276-ECD
T3 construct: Purchased from Acro BIOSYSTEMS; Used native (ELISA) and reduced and denatured (Western blot); also called B7-H3
T3 sequence: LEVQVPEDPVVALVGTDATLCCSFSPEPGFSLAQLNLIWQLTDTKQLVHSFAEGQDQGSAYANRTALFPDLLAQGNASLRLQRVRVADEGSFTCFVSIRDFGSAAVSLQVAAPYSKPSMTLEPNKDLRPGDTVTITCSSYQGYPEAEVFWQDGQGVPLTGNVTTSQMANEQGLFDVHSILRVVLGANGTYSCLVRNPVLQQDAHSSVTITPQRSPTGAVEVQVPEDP

[3] = molecular target: T4, peptide 1-19, bio-PSMTLEPNKD LRPGDTVT A (145-164); experiment: ELISA on biotin-labeled alanine-scan peptides
T4 construct: Alanine-scan variant of peptide 1
T4 peptide: Biotin-PSMTLEPNKDLRPGDTVTA

[4] = molecular target: T5, peptide 1-3, bio-PS ATLEPNKD LRPGDTVTI (145-164); experiment: ELISA on biotin-labeled alanine-scan peptides
T5 construct: Alanine-scan variant of peptide 1
T5 peptide: Biotin-PSATLEPNKDLRPGDTVTI

[5] = molecular target: T6, peptide 1-9, bio-PSMTLEPN AD LRPGDTVTI (145-164); experiment: ELISA on biotin-labeled alanine-scan peptides
T6 construct: Alanine-scan variant of peptide 1
T6 peptide: Biotin-PSMTLEPNADLRPGDTVTI

[6] = molecular target: T7, peptide 1-5, bio-PSMT AEPNKD LRPGDTVTI (145-164); experiment: ELISA on biotin-labeled alanine-scan peptides
T7 construct: Alanine-scan variant of peptide 1
T7 peptide: Biotin-PSMTAEPNKDLRPGDTVTI

[7] = molecular target: T8, peptide 1-2, bio-P AMTLEPNKD LRPGDTVTI (145-164); experiment: ELISA on biotin-labeled alanine-scan peptides
T8 construct: Alanine-scan variant of peptide 1
T8 peptide: Biotin-PAMTLEPNKDLRPGDTVTI

[8] = molecular target: T9, peptide 1-18, bio-PSMTLEPNKD LRPGDTV AI (145-164); experiment: ELISA on biotin-labeled alanine-scan peptides
T9 construct: Alanine-scan variant of peptide 1
T9 peptide: Biotin-PSMTLEPNKDLRPGDTVAI

[9] = molecular target: T10, peptide 1-13, bio-PSMTLEPNKD LR AGDTVTI (145-164); experiment: ELISA on biotin-labeled alanine-scan peptides
T10 construct: Alanine-scan variant of peptide 1
T10 peptide: Biotin-PSMTLEPNKDLRAGDTVTI

[10] = molecular target: T11, peptide 1-1, bio-ASMTLEPNKD LRPGDTVTI (145-164); experiment: ELISA on biotin-labeled alanine-scan peptides
T11 construct: Alanine-scan variant of peptide 1
T11 peptide: Biotin-ASMTLEPNKDLRPGDTVTI

[11] = molecular target: T12, peptide 1-6, bio-PSMTL APNKD LRPGDTVTI (145-164); experiment: ELISA on biotin-labeled alanine-scan peptides
T12 construct: Alanine-scan variant of peptide 1
T12 peptide: Biotin-PSMTLAPNKDLRPGDTVTI

[12] = molecular target: T13, peptide 1-17, bio-PSMTLEPNKD LRPGDT ATI (145-164); experiment: ELISA on biotin-labeled alanine-scan peptides
T13 construct: Alanine-scan variant of peptide 1
T13 peptide: Biotin-PSMTLEPNKDLRPGDTATI

[13] = molecular target: T14, peptide 1-16, bio-PSMTLEPNKD LRPGD AVTI (145-164); experiment: ELISA on biotin-labeled alanine-scan peptides
T14 construct: Alanine-scan variant of peptide 1
T14 peptide: Biotin-PSMTLEPNKDLRPGDAVTI

[14] = molecular target: T15, peptide 1-4, bio-PSM ALEPNKD LRPGDTVTI (145-164); experiment: ELISA on biotin-labeled alanine-scan peptides
T15 construct: Alanine-scan variant of peptide 1
T15 peptide: Biotin-PSMALEPNKDLRPGDTVTI

[15] = molecular target: T16, peptide 1-8, bio-PSMTLEP AKD LRPGDTVTI (145-164); experiment: ELISA on biotin-labeled alanine-scan peptides
T16 construct: Alanine-scan variant of peptide 1
T16 peptide: Biotin-PSMTLEPAKDLRPGDTVTI

mouse CD276-ECD = molecular target: T17, mouse CD276-ECD (mouse, UniProt Q8VE98 29-244); experiment: indirect ELISA, plate coated with 2 µg/mL mouse CD276-ECD
T17 construct: Purchased from Acro BIOSYSTEMS; also called mouse CD276-ECD protein
T17 sequence: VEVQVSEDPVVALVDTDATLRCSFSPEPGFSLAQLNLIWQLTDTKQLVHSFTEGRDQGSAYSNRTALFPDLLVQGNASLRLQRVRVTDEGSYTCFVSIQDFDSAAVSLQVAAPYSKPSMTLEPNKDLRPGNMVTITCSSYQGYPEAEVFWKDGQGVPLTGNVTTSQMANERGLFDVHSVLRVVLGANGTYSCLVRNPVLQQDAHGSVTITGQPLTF
Experimental: (§1) The specific method was as follows: The plates were pre-coated with crab-eating macaque and mouse CD276-ECD proteins diluted to 2 μg/mL in the coating solution (50 mM carbonate coating buffer, pH 9.6) and incubated at 4° C. overnight. The plates were then blocked with 5% skim milk powder at 37° C. for 2 hours. Afterward, the plates were washed 3 times with PBST, and the to-be-tested antibody, diluted in 1% BSA-PBST at various gradients, was added to the blocked plates at 100 μL per well. The plates were incubated at 37° C. for 1 hour. After washing the plates 3 times with PBST, HRP-conjugated goat anti-mouse IgG secondary antibody (purchased from Millipore) was added, and the plates were incubated at 37° C. for 30 minutes. After 3 more washes with PBST, residual droplets were removed by blotting on absorbent paper. Then, 100 μL of TMB substrate (purchased from KPL) was added to each well, and the plates were incubated at room temperature (20±5° C.) in the dark for 5 minutes. Finally, 50 μL of 2 M H2SO4 was added to each well to terminate the substrate reaction, and the OD value at 450 nm was read using a microplate reader to analyze the binding ability of the to-be-tested antibody to the target antigens, i.e., crab-eating macaque and mouse CD276-ECD proteins.

[16] = molecular target: T18, crab-eating macaque CD276-ECD (crab-eating macaque, UniProt Q5ZPR3 217-452 (human entry)); experiment: indirect ELISA, plate coated with crab-eating macaque CD276-ECD
T18 construct: Purchased from Acro BIOSYSTEMS; also called crab-eating macaque CD276-ECD protein; crab-eating macaque CD276-ECD antigen
T18 chain: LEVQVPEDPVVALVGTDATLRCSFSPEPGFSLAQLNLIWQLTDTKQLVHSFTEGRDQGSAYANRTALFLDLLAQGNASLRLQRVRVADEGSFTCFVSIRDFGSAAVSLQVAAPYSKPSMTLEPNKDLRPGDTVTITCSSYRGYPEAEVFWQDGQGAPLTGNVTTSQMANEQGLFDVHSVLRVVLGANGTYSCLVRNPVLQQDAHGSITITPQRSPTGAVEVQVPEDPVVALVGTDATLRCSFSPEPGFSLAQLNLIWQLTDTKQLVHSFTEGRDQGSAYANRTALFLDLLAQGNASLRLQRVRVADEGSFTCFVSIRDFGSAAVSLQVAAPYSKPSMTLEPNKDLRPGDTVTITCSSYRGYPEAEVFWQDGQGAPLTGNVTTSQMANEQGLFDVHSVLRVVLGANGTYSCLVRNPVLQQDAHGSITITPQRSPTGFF
Experimental: as §1

[17] = molecular target: T19, biotinylated human CD122/132 (human, UniProt P14784 27-239; P31785 23-254, limits assumed, biotinylated (site not stated)); experiment: sandwich ELISA: antibody on coated human CD276-ECD, biotinylated CD122/132 detected with SA-HRP
T19 construct: Bought heterodimeric reagent; also called CD122/CD132
T19 sequence (looked up) 1: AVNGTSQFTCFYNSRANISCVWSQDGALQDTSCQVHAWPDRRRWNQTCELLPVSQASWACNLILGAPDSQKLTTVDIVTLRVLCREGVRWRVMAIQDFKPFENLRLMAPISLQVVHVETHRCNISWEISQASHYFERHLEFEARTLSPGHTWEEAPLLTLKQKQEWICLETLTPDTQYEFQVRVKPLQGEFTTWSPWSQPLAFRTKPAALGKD
T19 sequence (looked up) 2: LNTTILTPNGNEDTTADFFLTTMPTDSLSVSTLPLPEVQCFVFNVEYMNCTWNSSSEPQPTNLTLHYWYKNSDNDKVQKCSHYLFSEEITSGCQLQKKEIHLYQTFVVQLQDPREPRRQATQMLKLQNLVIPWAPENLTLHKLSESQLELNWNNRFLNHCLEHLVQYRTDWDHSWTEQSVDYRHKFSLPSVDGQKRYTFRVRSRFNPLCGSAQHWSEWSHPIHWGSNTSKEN
Experimental: The method was as follows: The plates were pre-coated with human CD276-ECD protein diluted to 2 μg/mL in the coating solution (50 mM carbonate coating buffer, pH 9.6) and incubated at 4° C. overnight. The plates were then blocked with 5% skim milk powder at 37° C. for 2 hours. Afterward, the plates were washed 3 times with PBST, and the to-be-tested antibody, diluted in 1% BSA-PBST at various gradients, was added to the blocked plates at 100 μL per well. The plates were incubated at 37° C. for 1 hour. […] Following 3 additional washes with PBST, diluted HRP-conjugated streptavidin (SA) (purchased from Pierce) was added, and the plates were incubated at 37° C. for 30 minutes. After 3 more washes with PBST, residual droplets were removed by blotting on absorbent paper. Then, 100 μL of TMB substrate (purchased from KPL) was added to each well, and the plates were incubated at room temperature (20±5° C.) in the dark for 5 minutes.
As a control, hu147 could bind to CD276 (as shown in Embodiment 8), but not CD122/CD132.

T1 sequence (chain, as listed by the source limits assumed): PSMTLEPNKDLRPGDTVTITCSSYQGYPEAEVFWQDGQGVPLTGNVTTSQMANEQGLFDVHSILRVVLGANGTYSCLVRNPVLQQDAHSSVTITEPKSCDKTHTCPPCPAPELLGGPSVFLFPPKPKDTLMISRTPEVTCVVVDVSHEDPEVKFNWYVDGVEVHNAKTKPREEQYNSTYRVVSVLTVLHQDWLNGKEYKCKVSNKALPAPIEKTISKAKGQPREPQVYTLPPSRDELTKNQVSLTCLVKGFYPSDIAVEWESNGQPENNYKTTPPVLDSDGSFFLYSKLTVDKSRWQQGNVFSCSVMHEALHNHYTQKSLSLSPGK

B1: murine monoclonal antibody 147# (antibody, V domains shown)
VH: QVQLKQSGIELVRPGASVKLSCKTSGYIFTADWIYWVKQRSGQGLEWIGRIYPGVDSTYYNEKFKDKAILTADKSSSTAYMQLNSLKSEDSAVYFCARGGEVRRDFYALDYWGQGTSVTVSS
VL: NIVMTQSPESMSMSLGERVTLSCKASENVGTYVSWYQQKPEQSPKLLIYGASNRYTGVPARFTGSGSATDFTLTISSVQAEDLADYHCGQRYSYPFTFGSGTKLEIK
notes: Murine antibody purified from hybridoma supernatant by Protein G and detected with anti-mouse IgG
binding result (C2-type 1-Fc): binds
EC50 [1]: 0.0592 µg/mL and 0.39 nM
EC50 [2]: 0.0384 µg/mL and 0.26 nM
binding result [3]: binds
binding result [4]: binds
binding result [5]: binds
binding result [6]: binds
binding result [7]: binds
binding result [8]: binds
binding result [9]: binds
binding result [10]: binds
binding result [11]: binds
binding result [12]: binds
binding result [13]: binds
binding result [14]: binds
binding result [15]: binds
binding result (mouse CD276-ECD): no binding
EC50 [16]: 0.0302 µg/mL and 0.2 nM

B2: humanized antibody hu147 (antibody)
heavy: not shown
light: EIVMTQSPPTLSLSPGERVTLSCRASENVGTYVSWYQQKPGQAPRLLIYGASNRYTGIPARFSGSGSGTDFTLTISSLQPEDFAVYYCGQRYSYPFTFGGGTKLEIKRTVAAPSVFIFPPSDEQLKSGTASVVCLLNNFYPREAKVQWKVDNALQSGNSQESVTEQDSKDSTYSLSSTLTLSKADYEKHKVYACEVTHQGLSSPVTKSFNRGEC
notes: Human IgG1 / kappa; also called hul47
EC50 [2]: 0.0067 µg/mL and 0.04 nM
binding result [17]: no binding

B3: Fc-mutated humanized antibody hu147mu (antibody, human IgG1, kappa)
heavy: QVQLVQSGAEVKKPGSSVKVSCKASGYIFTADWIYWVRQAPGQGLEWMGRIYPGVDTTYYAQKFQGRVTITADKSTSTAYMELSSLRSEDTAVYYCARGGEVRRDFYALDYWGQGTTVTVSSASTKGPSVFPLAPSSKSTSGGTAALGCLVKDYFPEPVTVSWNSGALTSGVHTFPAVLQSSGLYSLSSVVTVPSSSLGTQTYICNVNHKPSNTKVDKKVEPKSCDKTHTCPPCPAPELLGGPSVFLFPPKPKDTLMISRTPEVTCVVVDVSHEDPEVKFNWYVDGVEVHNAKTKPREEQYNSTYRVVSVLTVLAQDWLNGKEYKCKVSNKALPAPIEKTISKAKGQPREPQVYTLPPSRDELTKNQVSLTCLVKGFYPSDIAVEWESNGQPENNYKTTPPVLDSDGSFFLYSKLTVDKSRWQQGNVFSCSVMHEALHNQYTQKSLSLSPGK
light: EIVMTQSPPTLSLSPGERVTLSCRASENVGTYVSWYQQKPGQAPRLLIYGASNRYTGIPARFSGSGSGTDFTLTISSLQPEDFAVYYCGQRYSYPFTFGGGTKLEIKRTVAAPSVFIFPPSDEQLKSGTASVVCLLNNFYPREAKVQWKVDNALQSGNSQESVTEQDSKDSTYSLSSTLTLSKADYEKHKVYACEVTHQGLSSPVTKSFNRGEC
notes: about 150 kDa; also called hul47mu
EC50 [2]: 0.0068 µg/mL and 0.05 nM

Source: US20250368740A1 (SHENZHEN BAISHITONG TECHNOLOGY DEVELOPMENT, published 2025)
